# Source: paper PMC8874921, “Evolved DNA Duplex Readers for Strand-Asymmetrically Modified 5-Hydroxymethylcytosine/5-Methylcytosine CpG Dyads”
# B1: C/mC oligo-dA/dT (EMSA) (dsDNA)
# DNA 1: AAAAAAAAAAACGAAAAAAAAAAA
# DNA 2: TTTTTTTTTTTCGTTTTTTTTTTT
# modifications: 5mC at C12 of strand 1 (o2967); strand 2 unmodified (o2904)
# B2: hmC/C oligo-dA/dT (EMSA) (dsDNA)
# DNA 1: AAAAAAAAAAACGAAAAAAAAAAA
# DNA 2: TTTTTTTTTTTCGTTTTTTTTTTT
# modifications: 5hmC at C12 of strand 1 (o3115); strand 2 unmodified (o2904)
# B3: hmC/mC oligo-dA/dT (EMSA) (dsDNA)
# DNA 1: AAAAAAAAAAACGAAAAAAAAAAA
# DNA 2: TTTTTTTTTTTCGTTTTTTTTTTT
# modifications: 5hmC at C12 of strand 1 (o3115); 5mC at C12 of strand 2 (o2909)
# B4: hmC/hmC oligo-dA/dT (EMSA) (dsDNA)
# DNA 1: AAAAAAAAAAACGAAAAAAAAAAA
# DNA 2: TTTTTTTTTTTCGTTTTTTTTTTT
# modifications: 5hmC at C12 of strand 1 (o3115); 5hmC at C12 of strand 2 (o3112)
# B5: mC/mC oligo-dA/dT (EMSA) (dsDNA)
# DNA 1: AAAAAAAAAAACGAAAAAAAAAAA
# DNA 2: TTTTTTTTTTTCGTTTTTTTTTTT
# modifications: 5mC at C12 of strand 1 (o2967); 5mC at C12 of strand 2 (o2909)
# Molecular target: wt MeCP2 MBD (Homo sapiens, UniProt P51608 90-181)
# Experiment: EMSA; EMSA; unlabeled oligo-dA/dT duplex (o2968/o2969) listed as binding trap; buffer, salt, pH and temperature not shown in the material
# Conditions: protein: recombinant, tags: N-terminal FLAG-MBP-FactorXa-TEV, C-terminal 7xHis, label: 6-FAM 5' strand 1
# wt MeCP2 MBD, sequence (P51608 90-181): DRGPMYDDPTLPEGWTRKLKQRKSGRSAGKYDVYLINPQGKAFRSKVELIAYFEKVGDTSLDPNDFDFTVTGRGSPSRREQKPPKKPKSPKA
Binder,Kd (blunt),Kd
B1,43.8 ± 3.64 nM,
B2,211 ± 19.5 nM,
B3,47.4 ± 12.4 nM,
B4,,198 ± 39.1 nM
B5,3.9 ± 0.636 nM,
